Results from publication PMC2935179.
Where two headings read alike, the source gives them in different places.

T1: Δ22 (FLI portion of EWS/FLI);FLI ETS domain (;, UniProt Q01543;Q01543 220-452;270-371, |)
T1 sequence 1: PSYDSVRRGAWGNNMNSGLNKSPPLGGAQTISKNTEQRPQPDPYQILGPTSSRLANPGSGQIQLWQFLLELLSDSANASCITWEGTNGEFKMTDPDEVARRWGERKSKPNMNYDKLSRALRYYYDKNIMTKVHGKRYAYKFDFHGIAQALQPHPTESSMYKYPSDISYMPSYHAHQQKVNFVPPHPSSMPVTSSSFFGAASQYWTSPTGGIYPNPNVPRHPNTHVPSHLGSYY
T1 sequence 2: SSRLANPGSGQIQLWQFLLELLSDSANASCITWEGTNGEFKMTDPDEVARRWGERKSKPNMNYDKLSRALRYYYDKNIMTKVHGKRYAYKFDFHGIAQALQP

T2: Δ22 (FLI portion of EWS/FLI) (UniProt Q01543 220-452)
T2 sequence: T1 sequence 1

T3: ETS1 (UniProt P14921 1-441)
T3 sequence: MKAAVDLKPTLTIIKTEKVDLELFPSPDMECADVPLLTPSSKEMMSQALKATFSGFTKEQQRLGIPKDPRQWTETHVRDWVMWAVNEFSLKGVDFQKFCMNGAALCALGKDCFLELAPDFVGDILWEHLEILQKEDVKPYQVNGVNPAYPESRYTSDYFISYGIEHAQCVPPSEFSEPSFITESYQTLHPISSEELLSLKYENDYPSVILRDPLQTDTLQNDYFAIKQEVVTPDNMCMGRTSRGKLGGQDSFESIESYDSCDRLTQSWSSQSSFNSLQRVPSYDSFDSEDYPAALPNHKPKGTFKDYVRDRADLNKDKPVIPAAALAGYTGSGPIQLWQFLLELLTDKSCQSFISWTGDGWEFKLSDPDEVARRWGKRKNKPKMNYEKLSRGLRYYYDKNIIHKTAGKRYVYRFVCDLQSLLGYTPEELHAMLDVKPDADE

B1: 6 GGAA motifs (dsDNA)
DNA 1: TGCAGGAAGGAAGGAAGGAAGGAAGGAAAGCT
DNA 2: AGCTTTCCTTCCTTCCTTCCTTCCTTCCTGCA
B2: 5 GGAA motifs (dsDNA)
DNA 1: TGCAGGAAGGAAGGAAGGAAGGAAAGCT
DNA 2: AGCTTTCCTTCCTTCCTTCCTTCCTGCA
B3: 7 GGAA motifs (dsDNA)
DNA 1: TGCAGGAAGGAAGGAAGGAAGGAAGGAAGGAAAGCT
DNA 2: AGCTTTCCTTCCTTCCTTCCTTCCTTCCTTCCTGCA
B4: 4 GGAA motifs (dsDNA)
DNA 1: TGCAGGAAGGAAGGAAGGAAAGCT
DNA 2: AGCTTTCCTTCCTTCCTTCCTGCA

What was measured:
[1] = molecular target: T1, Δ22 (FLI portion of EWS/FLI);FLI ETS …; experiment: EMSA
[2] = molecular target: T2, Δ22 (FLI portion of EWS/FLI); experiment: fluorescence polarization stoichiometry
ETS1 = molecular target: T3, ETS1; experiment: EMSA
ELF1 = ELF1 (UniProt P32519 1-619); experiment: EMSA
Sequence of ELF1 (P32519 whole entry): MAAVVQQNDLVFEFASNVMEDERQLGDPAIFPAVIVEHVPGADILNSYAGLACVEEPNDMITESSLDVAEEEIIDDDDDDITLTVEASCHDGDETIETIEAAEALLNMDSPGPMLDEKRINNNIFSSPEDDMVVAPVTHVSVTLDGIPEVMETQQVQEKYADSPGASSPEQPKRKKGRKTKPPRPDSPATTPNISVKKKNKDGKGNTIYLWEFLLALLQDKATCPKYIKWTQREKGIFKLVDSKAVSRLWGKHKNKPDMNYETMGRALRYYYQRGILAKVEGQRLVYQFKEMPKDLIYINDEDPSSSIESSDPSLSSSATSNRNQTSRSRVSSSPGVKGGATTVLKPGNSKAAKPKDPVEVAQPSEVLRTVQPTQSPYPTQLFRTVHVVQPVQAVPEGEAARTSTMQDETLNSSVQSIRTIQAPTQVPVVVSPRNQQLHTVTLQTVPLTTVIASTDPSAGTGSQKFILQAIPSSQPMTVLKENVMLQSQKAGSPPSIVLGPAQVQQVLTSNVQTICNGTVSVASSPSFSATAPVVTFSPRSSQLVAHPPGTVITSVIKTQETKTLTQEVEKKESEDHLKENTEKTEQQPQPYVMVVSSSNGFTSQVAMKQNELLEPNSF

[3] = molecular target: T1, Δ22 (FLI portion of EWS/FLI);FLI ETS …; experiment: EMSA; remark: listed apart in the source

| Binder | binding result [1] | binding result [2] | binding result (ETS1) | binding result (ELF1) | binding result [3] |
| --- | --- | --- | --- | --- | --- |
| B1 | binds | binds | – | – | – |
| B2 | binds | binds | – | – | – |
| B3 | binds | binds | binds | binds | – |
| B4 | – | – | – | – | binds |
